{"source": "patent US8673307", "key": {"[1]": {"biological_target": "YU2-gp140 trimer (artificially trimerized gp140 protein) (HIV-1 (YU2)) (UniProt P35961)", "assay": "SPR (Biacore T100), antibody immobilized on CM5 chip, gp140 trimer injected, 1:1 model"}, "YU2-gp120 (HIV-1 (YU2))": {"biological_target": "YU2-gp120 (HIV-1 (YU2)) (UniProt P35961)", "assay": "competition ELISA on gp120; unlabeled b12 against biotin labeled b12 (self-inhibition)"}}}
{"substance": "b12 (antibody)", "values": [{"measurement": "Kd", "setting": "[1]", "value": 12, "unit": "nM"}, {"measurement": "IC50", "setting": "YU2-gp120 (HIV-1 (YU2))", "value": 5, "unit": "µg/mL"}]}
